Laboratory results: patent US20060073146A1 (Genentech, published 2006)
Each block holds one molecule with its values, some of them ahead of it. Ends that are not written are not given here.

B4: Flag-AP-APRIL (ligand)
chain: AVLTQKQKKQHSVLHLVPINATSKDDSDVTEVMWQPALRRGRGLQAQGYGVRIQDAGVYLLYSQVLFQDVTFTMGQVVSREGQGRQETLFRCIRSMPSHPDRAYNSCYSAGVFHLHQGDILSVIIPRARAKLNLSPHGTFLGFVKL
notes: APRIL fused C-terminally to AP, AP fused C-terminally to Flag; not shown: Flag tag of the pCMV-1 Flag vector; human placental alkaline phosphatase
B5: Flag-APRIL (ligand, not shown: small tags and cut ends)
chain: AVLTQKQKKQHSVLHLVPINATSKDDSDVTEVMWQPALRRGRGLQAQGYGVRIQDAGVYLLYSQVLFQDVTFTMGQVVSREGQGRQETLFRCIRSMPSHPDRAYNSCYSAGVFHLHQGDILSVIIPRARAKLNLSPHGTFLGFVKL
notes: also called Flag-tagged APRIL fusion protein
B6: Flag-LIGHT (ligand, UniProt O43557 82-240, looked up, not shown: small tags and cut ends)
chain: QLIQERRSHEVNPAAHLTGANSSLTGSGGPLLWETQLGLAFLRGLSYHDGALVVTKAGYYYIYSKVQLGGVGCPLGLASTITHGLYKRTPRYPEELELLVSQQSPCGRATSSSRVWWDSSFLGGVVHLEAGEKVVVRVLDERLVRLRDGTRSYFGAFMV
notes: range 82-240; Control ligand; purified on M2 anti-Flag resin; also called Flag-tagged form of LIGHT
B7: TACI-ECD.hFc immunoadhesin (amino acids 2-166 of human TACI fused to human IgG1 Fc) (Fc fusion, not shown: a dimerising Fc or GST)
chain: SGLGRSRRGGRSRVDQEERFPQGLWTGVAMRSCPEEQYWDPLLGTCMSCKTICNHQSQRTCAAFCRSLSCRKEQGKFYDHLLRDCISCASICGQHPKQCAYFCENKLRSPVNLPPELRRQRSGEVENNSDNSGRYQGLEHRGSEASPALPGLKLSADQVALVYST
notes: also called TACI-IgG; TACI-Fc

Columns and labels:
Flag-APRIL [1] = target: B5; test: ELISA: Flag-APRIL plus control IgG on TACI-IgG captured by anti-human Fc; bound Flag-APRIL detected with biotinylated anti-Flag
Flag-APRIL [2] = target: B5; test: ELISA: Flag-APRIL plus control IgG on BCMA-IgG captured by anti-human Fc; bound Flag-APRIL detected with biotinylated anti-Flag
[3] = target: T1, TACI (the 265 amino acid form of human TACI, hTACI (265)), expressed on transfected cells (human, UniProt O14836 1-258); test: conditioned medium on TACI-transfected COS 7 cells, in situ AP staining
T1 sequence: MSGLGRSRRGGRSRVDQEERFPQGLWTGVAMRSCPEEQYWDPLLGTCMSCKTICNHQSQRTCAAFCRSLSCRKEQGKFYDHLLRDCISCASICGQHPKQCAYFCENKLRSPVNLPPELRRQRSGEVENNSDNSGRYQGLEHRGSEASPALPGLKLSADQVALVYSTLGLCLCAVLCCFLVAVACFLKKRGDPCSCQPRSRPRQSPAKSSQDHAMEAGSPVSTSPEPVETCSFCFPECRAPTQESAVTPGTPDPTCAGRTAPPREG
Experimental: In an in vitro assay, COS 7 cells (ATCC) were seeded into 12 well plates 24 hours before transfection. The cells were then transfected with 1 microgram TACI (the 265 amino acid form of human TACI described above, cloned in pRK5B vector, infra) or vector plasmid (pRK5B) alone. 18-24 hours after transfection, the cells were incubated with conditioned medium containing AP-TALL-1; AP-TNF-alpha; or AP-EDA for 1 hour at room temperature and stained for AP activity in situ as described in Tartaglia et al., Cell, 83:1263-1271 (1995).

Flag-APRIL [4] = target: B5; test: co-immunoprecipitation and Western blot
Experimental: One μg of the purified human or Flag-LIGHT (control), Flag-APRIL, or Flag-TALL-1, or Flag-AP-APRIL, or Flag-AP-TALL-1 was incubated with 1 μg of purified human immunoadhesin containing the IgG1-Fc fusion of the ECD of DcR3 (control; Pitti et al., Nature, 396:699-703 (1998)) or TACI or BCMA overnight at 4° C. in duplicate. The TACI-ECD.hFc immunoadhesins were prepared by methods described in Ashkenazi et al., Proc. Natl. Acad. Sci., 88:10535-10539 (1991). The immunoadhesin constructs consisted of amino acids 2-166 of the human TACI polypeptide (see FIG. 1). The TACI-ECD constructs were expressed in CHO cells using a heterologous signal sequence (pre-pro trypsin amino acids 1-17 of pCMV-1 Flag (Sigma)) and encoding the human IgG1 Fc region downstream of the TACI sequence, and then purified by protein A affinity chromatography. The BCMA-ECD immunoadhesins were prepared by methods described in Ashkenazi et al., as cited above. […]
One set of reactions (FIG. 8; Panels A-C) was subjected to immunoprecipitation through the receptor-immunoadhesin with protein A-agarose (Repligen). […] The immunoprecipitates were then analyzed by Western blot with horseradish peroxidase-conjugated anti-Flag M2 mAb (Sigma) to detect the Flag-tagged ligands (FIGS. 8A-C) or horseradish peroxidase-conjugated goat anti-human IgG pAb (Amersham) to detect the receptor-immunoadhesins (FIGS. 8D-F).

[5] = target: T2, Human TNF-alpha, membrane form on transfected COS 7 cells (Flag tag inserted between amino acid 70 and 71) (human, UniProt P01375 1-233); test: Fc fusion on ligand-transfected COS 7 cells, biotinylated anti-human antibody and Cy3-streptavidin staining
T2 construct: whole, on cells
T2 sequence (P01375 whole entry, the tested form may be a part): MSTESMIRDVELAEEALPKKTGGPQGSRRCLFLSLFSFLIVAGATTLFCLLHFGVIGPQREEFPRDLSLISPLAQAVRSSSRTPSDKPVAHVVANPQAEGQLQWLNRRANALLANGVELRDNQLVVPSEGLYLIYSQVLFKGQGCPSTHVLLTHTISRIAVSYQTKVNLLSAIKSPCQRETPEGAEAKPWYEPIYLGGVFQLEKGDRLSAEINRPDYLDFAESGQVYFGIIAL
Experimental: Additional assays were conducted to determine whether TACI could serve as a receptor for other members of the TNF family of ligands. COS 7 cells (ATCC) were transiently transfected (using Lipofectamine reagent) with membrane forms of various ligands of TNF family. Among the ligands tested were APRIL, TALL-1, 4-1 BBL, CD27L, CD30L, CD40L, EDA, FasL, GITRL, LT-alpha, OX-40L, RANKL, TNF-alpha, TNF-beta and Apo2L/TRAIL.
For the detection of TNF-alpha expression on the cell surface, a Flag tag was inserted between amino acid 70 and amino acid 71 (using the numbering according to the sequence in Pennica et al., supra). An extracellular region of TALL-1 (aa 75-285; see FIG. 3), 4-1BBL (aa 59-254; Goodwin et al., Eur. J. Immunol., 23:2631-2641 (1993)), CD27 ligand (aa 40-193; Goodwin et al., Cell, 73:447-456 (1993)), CD30 ligand (aa 61-234; Smith et al., Cell, 73:1349-1360 (1993)), RANKL (aa 71-317; see WO98/28426), Apo-2 ligand (aa 40-281; see WO97/25428) or Apo-3L (aa 46-249; see WO99/19490) was individually cloned at the BamHI site. […] For APRIL (see FIG. 4) and EDA (Srivastava et al., supra), full length cDNA clones without Flag tag were used.
Transfected COS 7 cells were subsequently incubated with TACI.ECD.hFC immunoadhesin (prepared as described above). […]

Flag-LIGHT = target: B6; test: co-immunoprecipitation (protein A or anti-Flag M2 agarose) and Western blot
Experimental: (§1) One μg of the purified human or Flag-LIGHT (control), Flag-APRIL, or Flag-TALL-1, or Flag-AP-APRIL, or Flag-AP-TALL-1 was incubated with 1 μg of purified human immunoadhesin containing the IgG1-Fc fusion of the ECD of DcR3 (control; Pitti et al., Nature, 396:699-703 (1998)) or TACI or BCMA overnight at 4° C. in duplicate. The TACI-ECD.hFc immunoadhesins were prepared by methods described in Ashkenazi et al., Proc. Natl. Acad. Sci., 88:10535-10539 (1991). The immunoadhesin constructs consisted of amino acids 2-166 of the human TACI polypeptide (see FIG. 1). The TACI-ECD constructs were expressed in CHO cells using a heterologous signal sequence (pre-pro trypsin amino acids 1-17 of pCMV-1 Flag (Sigma)) and encoding the human IgG1 Fc region downstream of the TACI sequence, and then purified by protein A affinity chromatography. The BCMA-ECD immunoadhesins were prepared by methods described in Ashkenazi et al., as cited above. The immunoadhesin constructs consisted of amino acids 5-51 of the human BCMA polypeptide (see FIG. 2). The BCMA-ECD constructs were expressed in CHO cells using a heterologous signal sequence (pre-pro trypsin amino acids 1-17 of pCMV-1 Flag (Sigma)) and encoding the human IgG1 Fc region downstream of the BCMA sequence, and then purified by protein A affinity chromatography.
(§2) One set of reactions (FIG. 8; Panels A-C) was subjected to immunoprecipitation through the receptor-immunoadhesin with protein A-agarose (Repligen). The second set of reactions (FIG. 8; panels D-F) was subjected to immunoprecipitation through the Flag-tagged ligand with Anti-Flag mAb-M2-agarose (Sigma). The immunoprecipitates were then analyzed by Western blot with horseradish peroxidase-conjugated anti-Flag M2 mAb (Sigma) to detect the Flag-tagged ligands (FIGS. 8A-C) or horseradish peroxidase-conjugated goat anti-human IgG pAb (Amersham) to detect the receptor-immunoadhesins (FIGS. 8D-F).

Flag-AP-APRIL = target: B4; test: conditioned medium on receptor-transfected COS 7 cells, in situ AP staining
[6] = target: T3, Flag-AP-TALL-1 (Example 2 construct, TALL-1 amino acids 135-285) (human, UniProt Q9Y275 135-285); test: as above
T3 construct: not shown: Flag tag of the pCMV-1 Flag vector; human placental alkaline phosphatase
T3 sequence (Q9Y275 135-285): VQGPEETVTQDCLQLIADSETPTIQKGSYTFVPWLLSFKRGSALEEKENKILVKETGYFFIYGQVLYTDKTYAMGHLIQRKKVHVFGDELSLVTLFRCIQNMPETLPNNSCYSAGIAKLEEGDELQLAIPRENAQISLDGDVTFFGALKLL

[7] = target: T4, DcR3-IgG (IgG1-Fc fusion of the ECD of DcR3) (human, UniProt O95407 30-300, limits assumed); test: co-immunoprecipitation (protein A or anti-Flag M2 agarose) and Western blot
T4 construct: extracellular domain; Control immunoadhesin; not shown: IgG1 Fc
T4 sequence (looked up): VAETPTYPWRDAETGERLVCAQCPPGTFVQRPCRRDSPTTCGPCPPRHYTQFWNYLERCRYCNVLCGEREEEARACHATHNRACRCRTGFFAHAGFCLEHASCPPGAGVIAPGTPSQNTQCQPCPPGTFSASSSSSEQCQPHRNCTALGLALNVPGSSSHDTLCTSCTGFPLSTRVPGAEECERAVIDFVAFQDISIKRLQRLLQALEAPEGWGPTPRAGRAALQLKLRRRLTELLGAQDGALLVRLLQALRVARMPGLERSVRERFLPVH
Experimental: as §1, §2

[8] = target: T1, TACI (the 265 amino acid form of human …); test: conditioned medium on receptor-transfected COS 7 cells, in situ AP staining
[9] = target: B7; test: co-immunoprecipitation (protein A or anti-Flag M2 agarose) and Western blot
Experimental: as §1, §2

% Max Binding to TACI (Flag-APRIL [1]): 100% | % Max Binding to BCMA (Flag-APRIL [2]): 100%
Molecule: IgG Ctrl (antibody)

binding result [3]: no binding
B1: AP-EDA (comprising amino acids 241-391 of EDA) (ligand, UniProt Q92838 241-391, looked up)
chain: AGTRENQPAVVHLQGQGSAIQVKNDLSGGVLNDWSRITMNPKVFKLHPRSGELEVLVDGTYFIYSQVEVYYINFTDFASYEVVVDEKPFLQCTRSIETGKTNYNTCYTAGVCLLKARQKIAVKMVHADISINMSKHTTFFGAIRLGEAPAS
notes: range 241-391; Used as conditioned medium; not shown: human placenta alkaline phosphatase (AP)

binding result (Flag-APRIL [4]): binds | binding result [5]: no binding | binding result (Flag-LIGHT): no binding (tested: 1 µg of each)
B2: BCMA-ECD immunoadhesin (amino acids 5-51 of human BCMA fused to human IgG1 Fc) (Fc fusion, not shown: a dimerising Fc or GST)
chain: AGQCSQNEYFDSLLHACIPCQLRCSSNTPPLTCQRYCNASVTNSVKG
modifications: not fully specified (C-terminus); cysteine pairing not given here; also: C-terminal fusion to human IgG1 Fc (limits not given here)
notes: also called BCMA-IgG; BCMA-Fc

binding result (Flag-AP-APRIL): binds | binding result [6]: binds
B3: BCMA, expressed on transfected cells (receptor)
chain: MLQMAGQCSQNEYFDSLLHACIPCQLRCSSNTPPLTCQRYCNASVTNSVKGTNAILWTCLGLSLIISLAVFVLMFLLRKISSEPLKDEFKNTGSGLLGMANIDLEKSRTGDEIILPRGLEYTVEECTCEDCIKSKPKVDSDHCFPLPAMEEGATILVTTKTNDYCKSLPAALSATEIEKSISAR

The next lines start with the molecule.

Molecule: B4
binding result [7]: no binding (tested: 1 µg of each) | binding result [8]: binds

Molecule: B5
binding result [7]: no binding (tested: 1 µg of each)

Molecule: B6
binding result [9]: no binding (tested: 1 µg of each)

Molecule: B7
binding result [5]: no binding (tested: 1 µg/ml)
